The values below come from the supplement of paper PMC11246515.

± gives the standard deviation of the averaged measurements.

The series can be described thus: total protein half-life in vivo (active degradation + dilution); higher = more stable protein.
[1] abbreviates: E. coli NCM3722 delta-clpP delta-lon delta-hslV, growth: N-lim chemostat, doubling time 6 h.
[2] abbreviates: E. coli NCM3722 delta-clpP, growth: N-lim chemostat, doubling time 6 h.
The mark [3] stands for this setting: E. coli NCM3722 delta-lon, growth: N-lim chemostat, doubling time 6 h.
Where [4] appears, read: E. coli NCM3722 delta-smpB, growth: N-lim chemostat, doubling time 6 h.
The mark [5] stands for this setting: wild type E. coli NCM3722, growth: C-lim chemostat, doubling time 3 h.
Setting [6] is: wild type E. coli NCM3722, growth: C-lim chemostat, doubling time 6 h.
Setting [7] is: wild type E. coli NCM3722, growth: C-lim chemostat, doubling time 12 h.
Setting [8] is: wild type E. coli NCM3722, growth: N-lim chemostat, doubling time 6 h.
Where [9] appears, read: wild type E. coli NCM3722, growth: N-lim chemostat, doubling time 12 h.
Where [10] appears, read: wild type E. coli NCM3722, growth: P-lim chemostat, doubling time 6 h.
The mark [11] stands for this setting: wild type E. coli NCM3722, growth: P-lim chemostat, doubling time 12 h.
Setting [12] is: E. coli NCM3722 delta-hslV, growth: N-lim chemostat, doubling time 6 h.

“MKIVIAPDSYKESLSASEVAQAIEKGFREIFPDAQYVSVPVADGGEGTVEAMIAATQGAERHAWVTGPLGEKVNASWGISGDGKTAFIEMAAASGLELVPAEKRDPLVTTSRGTGELILQALESGATNIIIGIGGSATNDGGAGMVQALGAKLCDANGNEIGFGGGSLNTLNDIDISGLDPRLKDCVIRVACDVTNPLVGDNGASRIFGPQKGASEAMIVELDNNLSHYAEVIKKALHVDVKDVPGAGAAGGMGAALMAFLGAELKSGIEIVTTALNLEEHIHDCTLVITGEGRIDSQSIHGKVPIGVANVAKKYHKPVIGIAGSLTDDVGVVHQHGIDAVFSVLTSIGTLDEAFRGAYDNICRASRNIAATLAIGMRNAG”: the “total protein half-life in vivo” value under setting [1] worked out at 3.21 ± 0.32 h; the “total protein half-life in vivo” value under setting [2] was 2.26 ± 0.32 h; the “total protein half-life in vivo” value under setting [3] came out at 2.05 h; the “total protein half-life in vivo” value under setting [4] turned out to be 3.17 ± 1.2 h; the “total protein half-life in vivo” value under setting [5] turned out to be 3.01 ± 0.68 h; the “total protein half-life in vivo” value under setting [6] stood at 5.02 ± 1.3 h. Besides, the “total protein half-life in vivo” value was found to be 9.27 ± 0.37 h under setting [7]; 2.08 ± 0.076 h under setting [8]; 10.9 h under setting [9]; 5.89 ± 0.76 h under setting [10]; 10.4 ± 2.5 h under setting [11].

With “MSEPQRLFFAIDLPAEIREQIIHWRATHFPPEAGRPVAADNLHLTLAFLGEVSAEKEKALSLLAGRIRQPGFTLTLDDAGQWLRSRVVWLGMRQPPRGLIQLANMLRSQAARSGCFQSNRPFHPHITLLRDASEAVTIPPPGFNWSYAVTEFTLYASSFARGRTRYTPLKRWALTQ”, the “total protein half-life in vivo” value is, setting by setting: under setting [1], 5.3 ± 0.55 h; under setting [2], 4.8 h; under setting [4], 4.66 ± 0.56 h; under setting [5], 3.11 h; under setting [6], 6.25 ± 0.27 h; under setting [7], 11 h. Besides, the “total protein half-life in vivo” value worked out at 5.03 ± 0.89 h under setting [8], 8.49 ± 0.71 h under setting [9], 5.55 ± 0.13 h under setting [10] and 11.33 ± 0.097 h under setting [11].

Consider “MVQRITIAPQGPEFSRFVMGYWRLMDWNMSARQLVSFIEEHLDLGVTTVDHADIYGGYQCEAAFGEALKLAPHLRERMEIVSKCGIATTAREENVIGHYITDRDHIIKSAEQSLINLATDHLDLLLIHRPDPLMDADEVADAFKHLHQSGKVRHFGVSNFTPAQFALLQSRLPFTLATNQVEISPVHQPLLLDGTLDQLQQLRVRPMAWSCLGGGRLFNDDYFQPLRDELAVVAEELNAGSIEQVVYAWVLRLPSQPLPIIGSGKIERVRAAVEAETLKMTRQQWFRIRKAALGYDVP”, for which the “total protein half-life in vivo” value reads like this: under setting [1], 5.21 ± 0.14 h; under setting [2], 5.59 ± 0.96 h; under setting [12], 4.95 ± 0.13 h; under setting [3], 5.07 ± 0.77 h; under setting [4], 4.67 ± 0.12 h; under setting [5], 2.86 ± 0.26 h. The “total protein half-life in vivo” value is, setting by setting: under setting [6], 5.71 ± 0.085 h; under setting [7], 9.47 ± 0.64 h; under setting [8], 5 ± 0.25 h; under setting [9], 8.62 ± 0.69 h; under setting [10], 5.79 ± 0.17 h; under setting [11], 10.9 ± 0.49 h.

Turning to “MLLNALASLGHKGIKTLRTFGRAGLMLFNALVGKPEFRKHAPLLVRQLYNVGVLSMLIIVVSGVFIGMVLGLQGYLVLTTYSAETSLGMLVALSLLRELGPVVAALLFAGRAGSALTAEIGLMRATEQLSSMEMMAVDPLRRVISPRFWAGVISLPLLTVIFVAVGIWGGSLVGVSWKGIDSGFFWSAMQNAVDWRMDLVNCLIKSVVFAITVTWISLFNGYDAIPTSAGISRATTRTVVHSSLAVLGLDFVLTALMFGN”, the “total protein half-life in vivo” value by setting is: under setting [2], 6.31 h; under setting [12], 6.03 h; under setting [3], 4.82 h; under setting [4], 5.29 h; under setting [5], 3.19 h; under setting [8], 7.45 h. The “total protein half-life in vivo” value is, setting by setting: under setting [9], 11.3 h; under setting [10], above 8 h; under setting [11], 11.55 ± 0.11 h.

Regarding “MKQVCVLGNGQLGRMLRQAGEPLGIAVWPVGLDAEPAAVPFQQSVITAEIERWPETALTRELARHPAFVNRDVFPIIADRLTQKQLFDKLHLPTAPWQLLAERSEWPAVFDRLGELAIVKRRTGGYDGRGQWRLRANETEQLPAECYGECIVEQGINFSGEVSLVGARGFDGSTVFYPLTHNLHQDGILRTSVAFPQANAQQQAQAEEMLSAIMQELGYVGVMAMECFVTPQGLLINELAPRVHNSGHWTQNGASISQFELHLRAITDLPLPQPVVNNPSVMINLIGSDVNYDWLKLPLVHLHWYDKEVRPGRKVGHLNLTDSDTSRLTATLEALIPLLPPEYASGVIWAQSKFG”, the “total protein half-life in vivo” value runs as follows: under setting [1], 5.64 ± 0.49 h; under setting [2], 4.96 ± 1.2 h; under setting [12], 3.96 ± 0.012 h; under setting [4], 4.51 ± 0.38 h; under setting [5], 3.19 ± 0.41 h; under setting [6], 6.83 ± 1.3 h. Moreover, the “total protein half-life in vivo” value under setting [7] is 9.39 ± 0.78 h; the “total protein half-life in vivo” value under setting [8] was found to be 4.393 ± 0.015 h; the “total protein half-life in vivo” value under setting [9] amounted to 8.59 ± 3.2 h; the “total protein half-life in vivo” value under setting [10] came out at 6.17 ± 0.59 h; the “total protein half-life in vivo” value under setting [11] was 12.1 ± 0.25 h.

As to “MLNYVIKRLLGLIPTLFIVSVLVFLFVHMLPGDPARLIAGPEADAQVIELVRQQLGLDQPLYHQFWHYISNAVQGDFGLSMVSRRPVADEIASRFMPTLWLTITSMVWAVIFGMAAGIIAAVWRNRWPDRLSMTIAVSGISFPAFALGMLLIQVFSVELGWLPTVGADSWQHYILPSLTLGAAVAAVMARFTRASFVDVLSEDYMRTARAKGVSETWVVLKHGLRNAMIPVVTMMGLQFGFLLGGSIVVEKVFNWPGLGRLLVDSVEMRDYPVIQAEILLFSLEFILINLVVDVLYAAINPAIRYK”, the “total protein half-life in vivo” value runs as follows: under setting [1], 6.23 ± 0.21 h; under setting [2], 5.94 ± 1 h; under setting [12], 6.89 ± 0.77 h; under setting [3], 6.12 ± 1.5 h; under setting [4], 5.48 ± 0.069 h; under setting [5], 3.13 ± 0.44 h. The “total protein half-life in vivo” value came to 6.58 ± 0.59 h under setting [6]; 11.4 ± 1.1 h under setting [7]; 5.84 ± 0.41 h under setting [8]; 11.1 ± 0.85 h under setting [9]; 5.68 h under setting [10]; 12.6 ± 1.1 h under setting [11].

As for “METPQPDKTGMHILLKLASLVVILAGIHAAADIIVQLLLALFFAIVLNPLVTWFIRRGVQRPVAITIVVVVMLIALTALVGVLAASFNEFISMLPKFNKELTRKLFKLQEMLPFLNLHMSPERMLQRMDSEKVVTFTTALMTGLSGAMASVLLLVMTVVFMLFEVRHVPYKMRFALNNPQIHIAGLHRALKGVSHYLALKTLLSLWTGVIVWLGLELMGVQFALMWAVLAFLLNYVPNIGAVISAVPPMIQVLLFNGVYECILVGALFLVVHMVIGNILEPRMMGHRLGMSTMVVFLSLLIWGWLLGPVGMLLSVPLTSVCKIWMETTKGGSKLAILLGPGRPKSRLPG [P0AGM0]”, the “total protein half-life in vivo” value by setting is: under setting [1], 6.64 ± 0.097 h; under setting [4], 5.16 h; under setting [6], 7.02 h; under setting [7], 11.5 ± 0.41 h; under setting [11], 13.6 h.

Regarding “MITNYEATVVTTDDIVHEVNLEGKRIGYVIKTENKETPFTVVDIDGPSGNVKTLDEGVKKMCLVHIGKNLPAEKKAEFLATLIAMKLKGEI”, the “total protein half-life in vivo” value is, setting by setting: under setting [6], 5.13 h; under setting [7], 10.3 h.
